Measurements: patent publication US20110293610A1 (published 2011)

Experiments:
[1] = target: T1, B Lymphocyte Stimulator, soluble form (human) (human, UniProt Q9Y275 134-285, biotinylated with NHS-biotin where used as biotinylated B Lymphocyte Stimulator); assay: phage ELISA
T1 construct: Coated on plastic, captured on streptavidin plates, amine-coupled to a CM5 chip or free in solution, depending on the assay; also called BLyS; immobilized B Lymphocyte Stimulator

[2] = target: LIGHT (human, UniProt O43557 74-240, limits assumed); assay: phage ELISA
Chain of LIGHT (O43557 74-240 limits assumed): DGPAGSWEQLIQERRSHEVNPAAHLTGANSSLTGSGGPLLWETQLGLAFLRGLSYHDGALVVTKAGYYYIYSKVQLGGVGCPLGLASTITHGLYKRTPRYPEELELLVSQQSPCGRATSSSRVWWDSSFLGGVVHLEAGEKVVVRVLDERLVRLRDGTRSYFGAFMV

[3] = target: T2, Bovine serum albumin (bovine, UniProt P02769 25-607); assay: phage ELISA
T2 construct: also called BSA
T2 sequence (P02769 25-607 limits assumed): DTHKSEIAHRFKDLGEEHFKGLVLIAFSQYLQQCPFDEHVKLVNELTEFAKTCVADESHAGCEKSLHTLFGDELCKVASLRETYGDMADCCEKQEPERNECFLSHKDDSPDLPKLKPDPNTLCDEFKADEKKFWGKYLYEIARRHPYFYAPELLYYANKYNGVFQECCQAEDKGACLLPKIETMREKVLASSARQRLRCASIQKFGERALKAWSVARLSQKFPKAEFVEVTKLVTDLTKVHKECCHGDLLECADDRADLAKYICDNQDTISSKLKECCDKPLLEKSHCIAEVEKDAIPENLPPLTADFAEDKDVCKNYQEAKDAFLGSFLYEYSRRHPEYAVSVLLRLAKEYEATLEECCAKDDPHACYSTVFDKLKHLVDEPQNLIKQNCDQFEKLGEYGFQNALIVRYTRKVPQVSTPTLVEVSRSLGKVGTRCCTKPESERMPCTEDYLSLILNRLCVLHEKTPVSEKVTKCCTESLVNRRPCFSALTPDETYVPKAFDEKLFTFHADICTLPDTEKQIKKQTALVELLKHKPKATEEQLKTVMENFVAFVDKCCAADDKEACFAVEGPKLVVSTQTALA

[4] = target: T3, TNF-alpha (human, UniProt P01375 77-233); assay: phage ELISA
T3 construct: also called TNFα; TNF-α
T3 sequence (P01375 77-233 limits assumed): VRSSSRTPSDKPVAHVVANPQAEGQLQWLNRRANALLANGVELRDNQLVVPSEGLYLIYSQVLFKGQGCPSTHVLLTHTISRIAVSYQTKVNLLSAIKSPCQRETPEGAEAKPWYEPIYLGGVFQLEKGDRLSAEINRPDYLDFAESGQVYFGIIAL

[5] = target: T4, TNF-beta (human, UniProt P01374 35-205); assay: phage ELISA
T4 construct: also called TNFβ; Tumour Necrosis Factor-beta
T4 sequence (looked up): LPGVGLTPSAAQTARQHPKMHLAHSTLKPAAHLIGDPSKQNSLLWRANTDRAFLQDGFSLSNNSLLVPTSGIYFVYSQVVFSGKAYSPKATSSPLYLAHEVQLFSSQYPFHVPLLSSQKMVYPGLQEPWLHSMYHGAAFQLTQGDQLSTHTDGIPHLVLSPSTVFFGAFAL

[6] = target: T5, TRAIL (human, UniProt P50591 114-281); assay: phage ELISA
T5 construct: also called TNF-related apoptosis inducing ligand
T5 sequence (P50591 114-281 limits assumed): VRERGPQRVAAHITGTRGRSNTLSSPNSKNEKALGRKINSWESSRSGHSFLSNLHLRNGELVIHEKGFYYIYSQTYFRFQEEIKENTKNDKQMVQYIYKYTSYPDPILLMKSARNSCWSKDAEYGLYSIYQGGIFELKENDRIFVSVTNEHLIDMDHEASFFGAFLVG

[7] = target: T6, HIS-tagged B Lymphocyte Stimulator (human, UniProt Q9Y275 71-285); assay: BIAcore, purified scFv over low density HIS-BLyS surface
T6 construct: Expressed in E. coli; also called HIS-B Lymphocyte Stimulator; histidine-tagged B Lymphocyte Stimulator; not shown: histidine tag from the pQE9 vector
Experimental: The chip containing the low density HIS-B Lymphocyte Stimulator surface was inserted into the BIAcore. […] The dilution series was then injected sequentially over the blank control (flow cell 1) and low density HIS-B Lymphocyte Stimulator surface (flow cell 2) using the following program: […]

[8] = target: T7, B Lymphocyte Stimulator, soluble form (human, UniProt Q9Y275 134-285); assay: BIAcore, IgG1 captured on low-density Protein A, BLyS flowed over; mean ± SD
T7 construct: also called BLyS; Neutrokine-alpha
Experimental: Briefly, antibodies were captured on low-density Protein A surfaces and B Lymphocyte Stimulator was passed over at various flow rates. The binding of B Lymphocyte Stimulator to immobilized antibody was detected by changes in […] that were proportional to the amount of bound B Lymphocyte Stimulator. Binding values were calculated using software provided by the manufacturer.

[9] = target: T1, B Lymphocyte Stimulator, soluble form …; assay: phage display panning on soluble BLyS
Excerpt: (§1) In a specific embodiment, antibodies of the present invention cross react with APRIL (SEQ ID NO:3239; GenBank Accession No. AF046888; J. Exp. Med. 188(6):1185-1190; PCT International Publication WO97/33902). […] These scFvs were isolated by panning a phage scFv library comprising VH and VL domains obtained from human bone marrow B cells (BM library). Phage from the BM phage library were first selected for binding to soluble B Lymphocyte Stimulator (amino acids 134-285 of SEQ ID NO:3228). A second round of selection for binding to the soluble form of APRIL (amino acids 105-250 of SEQ ID NO:3239) was then performed on the B Lymphocyte Stimulator binding phage selected in round one. A third round of selection for binding to the soluble form of APRIL (amino acids 105-250 of SEQ ID NO:3239) was then performed on the phage selected in round two. A final (fourth) round of selection for binding to the soluble form of B Lymphocyte Stimulator (amino acids 134-285 of SEQ ID NO:3228) was then performed on the phage selected in round three. Phage clones that bound B Lymphocyte Stimulator in the fourth round of selection were eluted with either 0.1M triethylamine (TEA) or with a TACI-Fc fusion protein (e.g., the extracellular domain of TACI (amino acids 31 to 159 of Genbank Accession No. AAC51790) fused to Fc).

[10] = target: T8, APRIL, soluble form (Homo sapiens (Human), UniProt O75888 105-250); assay: phage display panning on soluble APRIL, rounds two and three
T8 sequence: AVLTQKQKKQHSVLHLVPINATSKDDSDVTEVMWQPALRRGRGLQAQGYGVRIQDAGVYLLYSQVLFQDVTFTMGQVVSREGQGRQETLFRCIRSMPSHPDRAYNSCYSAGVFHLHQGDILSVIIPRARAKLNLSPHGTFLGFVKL
Excerpt: as §1

[11] = target: T9, membrane-bound B Lymphocyte Stimulator on U937 plasma membrane preparations (human, UniProt Q9Y275 1-285); assay: phage ELISA
T9 construct: Natural protein in plasma membrane fractions of the human cell line U937 coated on ELISA plates; also called U937 plasma membranes; U937 membranes

[12] = target: T10, Fas ligand (human, UniProt P48023 134-281, limits assumed); assay: phage ELISA
T10 sequence (looked up): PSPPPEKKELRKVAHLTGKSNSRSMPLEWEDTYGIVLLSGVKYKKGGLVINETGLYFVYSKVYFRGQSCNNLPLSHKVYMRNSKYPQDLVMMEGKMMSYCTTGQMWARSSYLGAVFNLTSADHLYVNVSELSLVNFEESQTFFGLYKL

[13] = target: T1, B Lymphocyte Stimulator, soluble form …; assay: phage competition ELISA

B1: I075A02 (scFv)
scFv: QVQLVQSGAEVKKPGSSVKVSCRASGGSFNHAISWVRQAPGRGLEWMGGILPMYGTANYAQKFQGRVTITADKLTNTVYMDLSRLRYEDTAVYYCARELGLSIVGATTGALDMWGRGTLVTVSSGGGGSGGGGSGGGGSAQSVVTQPPSASGTPGQRVTVSCSGGRSNIGSNTVSWYQQLPGTAPKLLIYSNDERPSGVPDRFSGSNSGTSASLAISGLQSEDEADYYCAAWDDSLNGVAFGGGTKLTVLG
B1: binds [1]; no binding [2]; no binding [3]. B1: no binding [4]; no binding [5]; no binding [6].

B2: I079F11 (scFv)
scFv: QVQLVQSGGGLVKPGGSLRLSCAASGFTFSSYSMNWVRQAPGKGLEWVAVVSSDGGNKYYADSVKGRFTISRDNSKNTVYLQMNSLRADDTAVYYCAKTGSGFDYWGRGTLVTVSSGGGGSGGGGSGGGGSDIQMTQSPSTLSASIGDRVTITCRASEGIYHWLAWYQQKPGKAPKLLIYKASSLASGAPSRFSGSGSGTDFTLTISSLQPDDFATYYCQQYSNYPLTFGGGTKLEIKR
Binder B2 has a Kd [7] of 5 nM.

B3: I099D03 (scFv)
scFv: QVQLVQSGAEVKKPGASVRVSCKSSGYTFTNYGISWVRQAPGQGLEWMGWISNNNGKTYYAQKVQGRVTMTTDTSTSTDYMELRGLRSDDTAIYYCARDNGGGTIGFDYWGRGTLVTVSSGGGGSGGGGSGGGGSAQAVLTQPSSVSGAPGQRVTMSCTGSSSNIGAGYDVHWYQQLPGTAPKLLIYDNTNRPSGVPDRFSGSRSGTSASLAITGLQAEDEADYFCQSYDITLSAVFGTGTKVTVLG
B3 showed a Kd [7] of 4 nM.

B4: I116A01 IgG1 (antibody, V domains shown)
VH: QVQLQQSGAEVKKPGSSVRVSCKASGGTFNNNAINWVRQAPGQGLEWMGGIIPMFGTAKYSQNFQGRVAITADESTGTASMELSSLRSEDTAVYYCARSRDLLLFPHHALSPWGRGTMVTVSS
VL: SSELTQDPAVSVALGQTVRVTCQGDSLRSYYASWYQQKPGQAPVLVIYGKNNRPSGIPDRFSGSSSGNTASLTITGAQAEDEADYYCSSRDSSGNHWVFGGGTELTVLG
B4 was tested, and the Kd [8] was 0.267 nM, the koff [8] was 0.000332 s⁻¹ and the kon [8] was 1.26e+06 M⁻¹ s⁻¹.

B5: I006D08 IgG1 (antibody, V domains shown)
VH: QVQLQQSGAEVKKPGSSVRVSCKASGGTFNNNAINWVRQAPGQGLEWMGGIIPMFGTAKYSQNFQGRVAITADESTSTASMELSSLRSEDTAVYYCARSRDLLLFPHYGMDVWGRGTMVTVSS
VL: SSELTQDPAVSVALGQTVRVTCQGDSLRSYYASWYQQKPGQAPVLVIYGKNNRPSGIPDRFSGSSSGNTASLTITGAQAEDEADYYCNSRDSSGNHWVFGGGTELTVLG
Work on B5 yielded a Kd [8] of 0.498 nM, a koff [8] of 0.00058 s⁻¹ and a kon [8] of 1.43e+06 M⁻¹ s⁻¹.

B6: I079E02 (scFv)
scFv: QVQLVQSGAEVKKPGSSVKVSCKASGGTFSSYAISWVRQAPGQGLEWMGGIIPIFGTANYAQKFQGRVTITADKSTSTAYMELSSLRSDDTAVYYCARDSGSYYYDAFDIWGKGTMVTVSSGGGGSGGGGSGGGGSDIVMTQSPSTLSASVGDRVTITCRASQGISSWLAWYQQKPGKAPKLLIYAASSLQSGVPSRFSGSGSGTDFTLTISSLQPEDFATYYCQQANSFPLTFGGGTKVEIKR
B6 was tested, and the Kd [7] was 10 nM.

B7: I082H08 (scFv)
scFv: EVQLVESGGGLVQPGGSLRLSCAASGFTFSDYGMHWVRQRPGKGLEWIAFIGSDGSNKYYGDTVKGRFTISRDNAKNSLYLQMNSLRAEGTAVYYCARDWDMDVWGQGTMVTVSSGGGGSGGGGSGGGGSSHVILTQPRSVSGSPGQSVTISCTGTSSDVGGYHYVSWYQQHPGKAPRLMIYEVTKRPSGVSNRFSGSKSGNTASLTISGVQAEDEADYYCSSYTSASTVIFGGGTKLTVLG
With B7 the Kd [7] was 1 nM.

B8: BAB2065 (scFv)
scFv: GVQLVQSGAEVKKPGASVKVSCKASGYTFTKYTMHWVRQAPGQGPEWMGWINGGSGDTKYSRKFQGRVTITKDTSASAAYMELSSLGSEDTALYYCARATYDPLTGYSFDGFDIWGQGTMVTVSSGGGGSGGGGSGGGGSSELTQPASVSGSPGQSITISCTGTSSDVGGYNYVSWYQQHPGKAPKLMIYEGSKRPSGVSNRFSGSKSGNTASLTISGLQAEDEADYYCSSYTTRSTRVFGGGTKLTVLG
B8: binds [9]; binds [10].

B9: I016F04 (scFv)
scFv: QVQLQQSGSELKKPGASVKVSCKVSGYSLTKMSMHWVRQSPGEGLEWVGGIDPETRQPVYAQKFQGRVTITKDTSASAAYMELSSLGSEDTALYYCARATYDPLTGYSFDGFDIWGQGTLVTVSSGGGGSGGGGSGGGGSQSVLTQPASVSGSPGQSITISCTGTSSDVGGYNYVSWYQQHPGKAPKLMIYEGSKRPSGVSNRFSGSKSGNTASLTISGLQAEDEADYYCSSYTTRSTRVFGGGTKLTVLG
B9: no binding [3]; binds [11]; no binding [4]. B9: no binding [12]; no binding [6]; binds [13].

B10: I006E07 (scFv)
scFv: QVQLQQSGAEEKKPGASVKVSCKASGYTFTSYAMHWVRQAPGQRLEWMGWINAGNGNTKYSQKFQGRVAITRDTSASTAYMELSSLRSEDTAVYYCARADYDILTGYSPLTYGMDVWGRGTLVTVSSGGGGSGGGGSGGGGSDIQMTQSPSTLSASIGDRVTITCRASEGIYHWLAWYQQKPGKAPKLLIYKASSLASGAPSRFSGSGSGTDFTLTISSLQPDDFATYYCQQYSNYPLTFGGGTKLEIKR
B10: binds [1]; no binding [3]; binds [11]. B10: no binding [4].

B11: I008D05 (scFv)
scFv: GVQLVQSGAEVKKPGSSVKISCKASGVTFNDYAFSWVRQAPGQGLEWVGGIIPKFGKAKYAQKFQGRLTISGDKSTSTAYMELRSLTSDDTAVYYCARATYDPLTGYSFDGFDIWGQGTMVTVSSGGGGSGGGGSGGGGSQSVLTQPASVSGSPGQSITISCTGTSSDVGGYNYVSWYQQHPGKAPKLMIYEGSKRPSGVSNRFSGSKSGNPASLTISGLQAEDEADYYCSSYTTRSTRVFGGGTKLTVLG
notes: also called 1008D05
B11: binds [1]; no binding [3]; binds [11]. B11: no binding [4].

B12: I082G02 (scFv)
scFv: KVQLVESGGGVVQPGRSLRLSCVTSGFTFSSYGMHWVRQAPGKGLEWVAGISYDGAKEYYGDPVKGRFTISRDNTKKTLNLQMNSLRAEDTAVYYCARDGYRTNDALDIWGQGTLATVSSGGGGSGGGGSGGGGSDIQMTQSPSTLSASIGDRVTITCRASEGIYHWLAWYQQKPGKAPKLLIYKASSLASGAPSRFSGSGSGTDFTLTISSLQPDDFATYYCQQYSNYPLTFGGGTKLEIKR
With B12 the Kd [7] was 6 nM.
